From publication PMC10621992 (PLOS Pathogens, 2023)

Target: T1, GST-BLK, prokaryotically expressed and purified (human, UniProt P51451 1-505)
T1 construct: also called purified recombinant BLK; not shown: GST, N-terminal, kept
Assay: pull-down
Conditions: both partners purified

T1 sequence (P51451 whole entry): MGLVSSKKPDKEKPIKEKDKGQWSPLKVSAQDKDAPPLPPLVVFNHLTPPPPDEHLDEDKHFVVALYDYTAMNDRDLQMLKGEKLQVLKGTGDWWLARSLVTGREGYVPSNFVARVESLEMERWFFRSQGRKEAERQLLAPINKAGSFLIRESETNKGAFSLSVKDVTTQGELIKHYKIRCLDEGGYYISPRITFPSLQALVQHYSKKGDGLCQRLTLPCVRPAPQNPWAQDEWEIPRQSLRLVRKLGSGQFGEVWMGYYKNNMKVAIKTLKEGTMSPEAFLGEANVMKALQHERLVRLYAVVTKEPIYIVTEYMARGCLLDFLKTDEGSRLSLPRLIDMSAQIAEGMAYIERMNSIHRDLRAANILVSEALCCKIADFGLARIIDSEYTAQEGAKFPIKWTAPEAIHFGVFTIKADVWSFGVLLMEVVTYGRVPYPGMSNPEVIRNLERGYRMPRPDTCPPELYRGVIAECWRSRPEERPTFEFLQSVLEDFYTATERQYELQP

| binding result | Binder |
| --- | --- |
| binds | IRF3-Flag, purified from HEK293 cells (natural protein, human, UniProt Q14653 1-427, looked up) MGTPKPRILPWLVSQLDLGQLEGVAWVNKSRTRFRIPWKHGLRQDAQQEDFGIFQAWAEATGAYVPGRDKPDLPTWKRNFRSALNRKEGLRLAEDRSKDPHDPHKIYEFVNSGVGDFSQPDTSPDTNGGGSTSDTQEDILDELLGNMVLAPLPDPGPPSLAVAPEPCPQPLRSPSLDNPTPFPNLGPSENPLKRLLVPGEEWEFEVTAFYRGRQVFQQTISCPEGLRLVGSEVGDRTLPGWPVTLPDPGMSLTDRGVMSYVRHVLSCLGGGLALWRAGQWLWAQRLGHCHTYWAVSEELLPNSGHGPDGEVPKDKEGGVFDLGPFIVDLITFTEGSGRSPRYALWFCVGESWPQDQPWTKRLVMVKVVPTCLRALVEMARVGGASSLENTVDLHISNSHPLSLTSDQYKAYLQDLVEGMDFQGPGES |
| binds | His-IRF3, prokaryotically expressed and purified (natural protein, human, UniProt Q14653 1-427, looked up, not shown: His, N-terminal, kept) MGTPKPRILPWLVSQLDLGQLEGVAWVNKSRTRFRIPWKHGLRQDAQQEDFGIFQAWAEATGAYVPGRDKPDLPTWKRNFRSALNRKEGLRLAEDRSKDPHDPHKIYEFVNSGVGDFSQPDTSPDTNGGGSTSDTQEDILDELLGNMVLAPLPDPGPPSLAVAPEPCPQPLRSPSLDNPTPFPNLGPSENPLKRLLVPGEEWEFEVTAFYRGRQVFQQTISCPEGLRLVGSEVGDRTLPGWPVTLPDPGMSLTDRGVMSYVRHVLSCLGGGLALWRAGQWLWAQRLGHCHTYWAVSEELLPNSGHGPDGEVPKDKEGGVFDLGPFIVDLITFTEGSGRSPRYALWFCVGESWPQDQPWTKRLVMVKVVPTCLRALVEMARVGGASSLENTVDLHISNSHPLSLTSDQYKAYLQDLVEGMDFQGPGES |
